The text below walks through data of paper doi:10.1101/2025.09.02.671137 (bioRxiv, 2025).

Substitutions are numbered along the chain they refer to.

For one series, the target named is T1, Cdc13-K504E (Saccharomyces cerevisiae, UniProt P32797 1-924, K504E).
T1 sequence: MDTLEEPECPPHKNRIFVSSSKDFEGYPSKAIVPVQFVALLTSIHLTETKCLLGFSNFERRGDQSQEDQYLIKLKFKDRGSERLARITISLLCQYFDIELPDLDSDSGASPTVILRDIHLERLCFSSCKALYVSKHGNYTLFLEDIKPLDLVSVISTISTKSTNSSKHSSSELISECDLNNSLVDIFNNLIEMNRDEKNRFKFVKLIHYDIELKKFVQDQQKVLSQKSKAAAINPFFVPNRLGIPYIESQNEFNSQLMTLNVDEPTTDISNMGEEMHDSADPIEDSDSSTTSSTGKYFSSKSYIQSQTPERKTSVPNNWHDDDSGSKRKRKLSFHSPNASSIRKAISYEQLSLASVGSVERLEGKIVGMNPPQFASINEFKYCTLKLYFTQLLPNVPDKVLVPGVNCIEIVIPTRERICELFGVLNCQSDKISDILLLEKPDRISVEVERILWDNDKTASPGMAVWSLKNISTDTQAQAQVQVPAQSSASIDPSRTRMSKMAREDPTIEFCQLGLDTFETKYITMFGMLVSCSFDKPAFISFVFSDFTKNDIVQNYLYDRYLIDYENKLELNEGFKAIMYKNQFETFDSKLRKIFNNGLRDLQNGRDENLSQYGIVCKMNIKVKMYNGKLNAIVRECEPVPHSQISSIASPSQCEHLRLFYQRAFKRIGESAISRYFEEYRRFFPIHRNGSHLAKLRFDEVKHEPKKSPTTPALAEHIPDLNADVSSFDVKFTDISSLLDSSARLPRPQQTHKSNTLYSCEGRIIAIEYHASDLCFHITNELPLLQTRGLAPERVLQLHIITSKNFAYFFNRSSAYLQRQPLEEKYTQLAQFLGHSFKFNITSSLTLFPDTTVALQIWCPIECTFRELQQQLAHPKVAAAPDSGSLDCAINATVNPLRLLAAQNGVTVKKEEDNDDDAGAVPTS
The experiment in a line: EMSA.

Series [1] has as its target T2, Cdc13 (Saccharomyces cerevisiae, UniProt P32797 1-924).
T2 sequence: T1 sequence with E504K
The experiment in a line: EMSA.

A further series addresses Ku (Ku70-Ku80);Cdc13 (Saccharomyces cerevisiae;Saccharomyces …, UniProt P32807;Q04437;P32797 1-602;1-629;1-924, |). The experiment in a line: EMSA.
Series [2] has as its target T2, Cdc13. In words: EMSA. The source holds these as a separate data set.
The target in the next series is T3, Cdc13-OB234 (Saccharomyces cerevisiae, UniProt P32797 341-924).
T3 sequence: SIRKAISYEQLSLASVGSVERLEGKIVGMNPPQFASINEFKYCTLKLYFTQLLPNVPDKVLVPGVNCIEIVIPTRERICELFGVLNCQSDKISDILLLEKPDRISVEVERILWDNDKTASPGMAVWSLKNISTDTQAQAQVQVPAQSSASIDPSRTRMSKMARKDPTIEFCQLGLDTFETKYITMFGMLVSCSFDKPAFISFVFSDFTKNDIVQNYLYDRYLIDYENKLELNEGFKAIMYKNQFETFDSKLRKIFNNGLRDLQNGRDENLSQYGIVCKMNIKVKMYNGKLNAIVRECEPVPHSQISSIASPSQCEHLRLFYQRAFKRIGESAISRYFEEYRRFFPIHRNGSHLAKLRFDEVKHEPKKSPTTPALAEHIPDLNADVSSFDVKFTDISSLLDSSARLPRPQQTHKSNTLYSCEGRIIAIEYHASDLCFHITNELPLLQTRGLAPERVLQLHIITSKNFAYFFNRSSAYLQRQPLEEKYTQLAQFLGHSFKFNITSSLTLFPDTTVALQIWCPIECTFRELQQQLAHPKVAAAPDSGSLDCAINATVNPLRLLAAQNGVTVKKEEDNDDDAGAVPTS
In words: DNase I footprinting.

Series [3] has as its target T2, Cdc13. The experiment in a line: DNase I footprinting.
The series “SEC” deals with the molecule itself. The experiment in a line: SEC.
The next series has as its target RPA (UniProt P22336;P26754;P26755 1-621;1-273;1-122). In words: EMSA.

Chain of RPA (P22336 whole entry, chain 1 of 3): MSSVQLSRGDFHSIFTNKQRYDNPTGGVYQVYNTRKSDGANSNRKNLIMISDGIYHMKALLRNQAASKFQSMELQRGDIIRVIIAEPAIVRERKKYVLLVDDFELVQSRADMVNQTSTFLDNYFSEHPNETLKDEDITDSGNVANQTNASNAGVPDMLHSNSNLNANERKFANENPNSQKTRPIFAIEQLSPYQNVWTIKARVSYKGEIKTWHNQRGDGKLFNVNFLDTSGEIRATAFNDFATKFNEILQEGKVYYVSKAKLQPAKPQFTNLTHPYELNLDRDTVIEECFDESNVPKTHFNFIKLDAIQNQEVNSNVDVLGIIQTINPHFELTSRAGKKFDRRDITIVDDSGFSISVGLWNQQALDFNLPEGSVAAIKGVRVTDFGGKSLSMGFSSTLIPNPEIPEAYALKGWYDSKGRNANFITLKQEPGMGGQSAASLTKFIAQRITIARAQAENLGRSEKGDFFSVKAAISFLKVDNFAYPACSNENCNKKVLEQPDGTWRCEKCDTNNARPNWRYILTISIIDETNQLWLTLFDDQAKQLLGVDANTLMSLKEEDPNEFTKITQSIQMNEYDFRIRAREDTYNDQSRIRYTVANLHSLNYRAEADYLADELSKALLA
Chain of RPA (P26754 whole entry, chain 2 of 3): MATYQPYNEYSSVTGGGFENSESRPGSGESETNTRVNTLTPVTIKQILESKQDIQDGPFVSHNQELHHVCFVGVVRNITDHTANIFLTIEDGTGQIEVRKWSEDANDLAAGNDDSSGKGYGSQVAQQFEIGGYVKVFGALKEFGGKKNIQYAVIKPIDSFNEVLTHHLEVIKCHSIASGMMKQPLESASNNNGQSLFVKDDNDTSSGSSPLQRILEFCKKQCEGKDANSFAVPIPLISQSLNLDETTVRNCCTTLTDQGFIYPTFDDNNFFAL
Chain of RPA (P26755 whole entry, chain 3 of 3): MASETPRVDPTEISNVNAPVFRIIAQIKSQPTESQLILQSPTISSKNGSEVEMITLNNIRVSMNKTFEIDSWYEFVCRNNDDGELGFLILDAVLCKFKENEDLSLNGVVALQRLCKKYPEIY
Chain of Ku (Ku70-Ku80);Cdc13 (P32807 whole entry, chain 1 of 2): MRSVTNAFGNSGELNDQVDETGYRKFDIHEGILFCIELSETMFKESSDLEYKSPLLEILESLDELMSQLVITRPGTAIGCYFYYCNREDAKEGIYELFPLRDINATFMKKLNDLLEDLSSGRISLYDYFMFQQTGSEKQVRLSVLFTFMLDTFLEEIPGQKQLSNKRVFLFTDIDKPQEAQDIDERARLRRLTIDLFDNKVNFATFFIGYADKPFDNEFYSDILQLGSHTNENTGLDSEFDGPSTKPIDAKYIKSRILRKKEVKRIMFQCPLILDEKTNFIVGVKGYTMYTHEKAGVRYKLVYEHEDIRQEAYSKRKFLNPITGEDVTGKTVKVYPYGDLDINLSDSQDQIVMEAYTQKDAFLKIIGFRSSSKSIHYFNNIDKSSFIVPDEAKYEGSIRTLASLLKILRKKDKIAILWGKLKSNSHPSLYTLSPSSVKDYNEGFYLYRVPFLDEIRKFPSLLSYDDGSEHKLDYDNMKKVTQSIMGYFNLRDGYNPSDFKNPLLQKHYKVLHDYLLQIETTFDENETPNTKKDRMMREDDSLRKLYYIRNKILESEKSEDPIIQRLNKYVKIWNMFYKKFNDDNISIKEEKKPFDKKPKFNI
Chain of Ku (Ku70-Ku80);Cdc13 (Q04437 whole entry, chain 2 of 2): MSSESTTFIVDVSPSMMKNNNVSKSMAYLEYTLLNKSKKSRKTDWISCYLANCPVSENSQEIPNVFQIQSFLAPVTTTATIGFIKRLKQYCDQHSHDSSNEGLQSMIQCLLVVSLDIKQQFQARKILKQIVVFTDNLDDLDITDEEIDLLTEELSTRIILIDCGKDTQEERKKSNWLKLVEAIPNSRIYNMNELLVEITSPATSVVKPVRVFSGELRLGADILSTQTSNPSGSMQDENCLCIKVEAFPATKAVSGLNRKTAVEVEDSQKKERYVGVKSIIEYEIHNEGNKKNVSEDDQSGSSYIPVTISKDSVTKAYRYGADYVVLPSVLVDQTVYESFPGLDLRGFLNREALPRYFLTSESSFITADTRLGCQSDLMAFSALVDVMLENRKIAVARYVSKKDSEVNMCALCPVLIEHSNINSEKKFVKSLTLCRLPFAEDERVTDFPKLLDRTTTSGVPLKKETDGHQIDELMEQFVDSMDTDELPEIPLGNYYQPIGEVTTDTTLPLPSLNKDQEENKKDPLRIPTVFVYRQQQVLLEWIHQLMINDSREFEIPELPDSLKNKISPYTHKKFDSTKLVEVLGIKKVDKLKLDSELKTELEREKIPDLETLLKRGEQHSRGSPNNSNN

B1: Tel22 (dsDNA)
DNA 1: ATAATGATAAGACGTAGAGTGGGTGTGTGTGTGGGGTGGTGTGTGTGG
DNA 2: ACACCCACTCTACGTCTTATCATTAT
On to B1, for which the binding result in the series with Cdc13-K504E and in the series with Ku (Ku70-Ku80);Cdc13 was “binds” each time. In the series with Cdc13 [1], the Kd was under 2.5 nM.

B2: Tel14 (dsDNA)
DNA 1: ATAATGATAAGACGTAGAGTGGGTGTGTGTGTGGGGTGGT
DNA 2: ACACCCACTCTACGTCTTATCATTAT
Consider B2, for which, in the series with Cdc13-K504E, the binding result is on record as “binds”. Further, the Kd with Cdc13 [1] was about 5 nM.

B3: ssTel22 (ssDNA)
DNA: TGTGGGTGTGGTGTGGGTGTGG
Turning to B3, in the series with Cdc13-K504E, the binding result is “binds”.

B4: Tel7 (dsDNA)
DNA 1: ATAATGATAAGACGTAGAGTGGGTGTGTGTGTG
DNA 2: ACACCCACTCTACGTCTTATCATTAT
The molecule B4 came in with a Kd in the series with Cdc13 [1] of about 20 nM.

B5: ssTel7 (ssDNA)
DNA: GTGTGGT
For the molecule B5, the binding result in the series with Cdc13 [2] was “no binding”.

B6: L-Tel22 (dsDNA)
DNA 1: TTCAGACAACAGTAGACTACAAGGATGACGACAAGATTAAGCTTTCTTATGTGGGTGTGTGTGTGGGGTGGTGTGTGTGG
DNA 2: ACACCCACATAAGAAAGCTTAATCTTGTCGTCATCCTTGTAGTCTACTGTTGTCTGAA
Turning to B6, the binding result in the series with Cdc13-OB234 and with Cdc13 [3] was “binds” each time.

B7: Cdc13 (recombinant full-length, Cdc13-Flag) (natural protein, S. cerevisiae, UniProt P32797 1-924, looked up)
chain: T1 sequence with E504K
In the case of B7, the “stoichiometry N” value in “SEC” came to 2.

B8: ds26 (dsDNA)
DNA 1: ATAATGATAAGACGTAGAGTGGGTGT
DNA 2: ACACCCACTCTACGTCTTATCATTAT
In the series with Cdc13 [1], B8 showed a Kd of about 300 nM. Moreover, in the series with RPA, the binding result is “no binding”.
